The target of test [1] is T1, Recombinant human IL-5 (human, UniProt P05113 20-134, 125I label (Bolton-Hunter reagent) in the receptor binding inhibition assay and the colony lifts; residues not stated). Description: cell-based or functional assay.
The target in test [2] is T1, Recombinant human IL-5. Description: cell-based or functional assay. This is another data set of the same source.
For test [3], the target named is T2, human IL-1α (human, UniProt P01583 113-271).
T2 sequence (looked up): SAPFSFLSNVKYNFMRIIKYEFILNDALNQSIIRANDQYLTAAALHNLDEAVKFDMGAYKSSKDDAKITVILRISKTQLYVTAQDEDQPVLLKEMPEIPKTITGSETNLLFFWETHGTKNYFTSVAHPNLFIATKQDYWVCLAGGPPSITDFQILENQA
Kind of test: ELISA, supernatants of the cloned lines. (ELISA stands for enzyme-linked immunosorbent assay.)

In test [4] the target is human IL-1β (human, UniProt P01584 117-269). Description: ELISA, supernatants of the cloned lines.
Test [5] has as its target T3, human IL-4 (human, UniProt P05112 25-153).
T3 sequence (looked up): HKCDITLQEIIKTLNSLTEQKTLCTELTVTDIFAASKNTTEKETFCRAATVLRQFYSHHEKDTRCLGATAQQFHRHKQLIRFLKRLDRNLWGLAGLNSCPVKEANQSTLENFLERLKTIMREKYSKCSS
Description: ELISA, supernatants of the cloned lines.

Test [6] deals with human IL-8 (human, UniProt P10145 28-99, limits assumed). Description: ELISA, supernatants of the cloned lines.
The target in test [7] is T4, human M-CSF (human, UniProt P09603 33-190, limits assumed).
T4 sequence (looked up): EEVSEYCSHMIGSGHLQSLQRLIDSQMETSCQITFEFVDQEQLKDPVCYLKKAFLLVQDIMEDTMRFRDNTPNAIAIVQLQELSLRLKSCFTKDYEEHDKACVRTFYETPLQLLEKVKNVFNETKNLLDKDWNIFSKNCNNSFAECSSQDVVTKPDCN
Description: ELISA, supernatants of the cloned lines.

In test [8] the target is human TGFα (human, UniProt P01135 40-89). Kind of test: ELISA, supernatants of the cloned lines.
Test [9] addresses T1, Recombinant human IL-5. Kind of test: optical biosensor (BIAcore), immobilized hIL-5, 25° C.
Test [10] has as its target T1, Recombinant human IL-5. Description: inhibition of 125I-IL-5 binding to IL-5R(α chain) from Drosophila membranes.
For test [11], the target named is T1, Recombinant human IL-5. Kind of test: colony lift assay with iodinated IL-5, chain shuffled library.

B1: murine monoclonal antibody 2E3 (antibody, IgG2a, V domains shown)
VH: PGLVAPSQSLSITCTVSGFSLTSYSVHWVRQPPGKGLEWLGVIWASGGTDYNSALMSRLSISKDNSKSQVFLKLNSLQTDDAAMYYCARDPPFSLLRLDFWGQGTTLTVSS
VL: SSLSVSAGEKVTMSCKSSQSLLNSGNQKNYLAWYQQKPGQPPKLLIYGASTRESGVPDRFTGSGSGTDFTLTISSVQAEDLAVYYCQNDHSFPFTFGSGTELEIK
notes: also called mAb 2E3; hybridoma SK119-2E3.39.40.2
On to B1, for which the “inhibition of proliferation of murine B13 cells” value (“inhibition … of murine B13 cells” below) in [1] is above 70%. The “100% Inhibition (pM), B13 cell proliferation” value (from here on “100% Inhibition (pM)”) in test [2] came to 600 pM. Moreover, the “Proliferation IC50 (pM), B13 cells” value in [2] was found to be 90 pM. Besides, the binding result in [3], in test [4], in test [5], in test [6], in [7] and in test [8] was “no binding” in each case. Moreover, in test [9], the dissociation constant (Kd) was 0.02 nM. For the same molecule, in test [10], the IC50 came to 1 nM.

B2: murine monoclonal antibody 2F2 (antibody, V domains shown)
VH: PGLVAPSQSLSITCTVSGFSLTSYSVHWVRQPPGKGLEWLGVIWASGGTDYNSALMSRLSISKDNSKSQVFLKLNSLRTDDTAMYYCARDPPSSLLRLDYWGQGTTLTVSS
VL: SSLSVSAGEKVTMSCKSSQSLLNSGNQKNYLAWYQQKPGQPPKLLIYGASTRESGVPDRFTGSGSGTDFTLTISSVQAEDLAVYYCQNDHSFPFTFGSGTELEIK
notes: also called mAb 2F2; hybridoma SK119-2F2.37.80.12
Turning to B2, the “inhibition … of murine B13 cells” value in test [1] is above 70%. For the same molecule, the “100% Inhibition (pM)” value in test [2] was determined as 340 pM. For the same molecule, the “Proliferation IC50 (pM), B13 cells” value in test [2] is 150 pM. The binding result in test [3], in test [4], in test [5], in test [6], in test [7] and in [8] was “no binding” in each case. Also, in test [9], the Kd turned out to be 0.013 nM. In addition, the IC50 in test [10] amounted to 1 nM.

B3: murine monoclonal antibody 2B6 (antibody, IgG1, V domains shown)
VH: QVQLKESGPGLVAPSQSLSITCTVSGFSLTSYSVHWVRQPPGKGLEWLGVIWASGGTDYNSALMSRLSISKDNSKSQVFLKLNSLQTDDTAMYYCARDPPSSLLRLDYWGQGTTLTVSS
VL: DIVMTQSPSSLSVSAGEKVTMSCKSSQSLLNSGNQKNYLAWYQQKPGQPPKLLIYGASTRESGVPDRFTGSGSGTDFTLSISSVQAEDLAVYYCQNVHSFPFTFGSGTELEIK
notes: also called mAb 2B6; murine 2B6
Regarding B3, the “inhibition … of murine B13 cells” value in test [1] is above 70%. The “100% Inhibition (pM)” value in test [2] worked out at 200 pM. The “Proliferation IC50 (pM), B13 cells” value in test [2] was determined as 70 pM. Further, the binding result in [3], in test [4], in test [5], in test [6], in test [7] and in test [8] was “no binding” in each case. Besides, in test [9], the Kd was 0.022 nM. Also, in test [10], the IC50 was 1 nM.

B4: Fab 15 from the chain-shuffled library (2B6 Fd with a library light chain) (Fab, V domains shown)
VH: QVQLKESGPGLVAPSQSLSITCTVSGFSLTSYSVHWVRQPPGKGLEWLGVIWASGGTDYNSALMSRLSISKDNSKSQVFLKLNSLQTDDTAMYYCARDPPSSLLRLDYWGQGTTLTVSS
VL: ELVMTQSPSSLSVSAGEKVTMSCKSSQSLLNSGNQKNYLAWYQQKPGQPPKLLIYGASTRESGVPDRFTGSGSGTDFTLTISSVQAEDLAVYYCQNDYSYPFTFGSGTKLEIK
notes: not shown: constant part of the murine 2B6 Fd (CH1) and any tag from pMKFabGene3H
In the case of B4, the binding result in test [11] is “binds”.

B5: Fab 2 from the chain-shuffled library (2B6 Fd with a library light chain) (Fab, V domains shown)
VH: QVQLKESGPGLVAPSQSLSITCTVSGFSLTSYSVHWVRQPPGKGLEWLGVIWASGGTDYNSALMSRLSISKDNSKSQVFLKLNSLQTDDTAMYYCARDPPSSLLRLDYWGQGTTLTVSS
VL: ELVMTQSPSSLSVSAGEKVTMSCKSSQSLLNSGNQKNYLAWYQQKPGQPPKLLIYGASTRESGVPDRFTGSGSGTDFTLTISSVQAEDLAVYYCQNDHSYPFTFGSGTKLEIK
notes: as for B4
Take B5: the binding result in test [11] is “binds”.

For orientation: Kd means a measure of binding affinity in units of concentration. Usually IC50 stands for the concentration at which inhibition is half-maximal.
